In patent US20250262210A1 (TRUSTEES OF COLUMBIA UNIVERSITY IN THE CITY OF NEW YORK, published 2025):

Tests used:
Experiment in all cases: IP/MS, LZTR1 wild type-FLAG, U87
SEC24D = target: T1, SEC24D (human, UniProt O94855 1-1032, limits assumed)
T1 sequence (looked up): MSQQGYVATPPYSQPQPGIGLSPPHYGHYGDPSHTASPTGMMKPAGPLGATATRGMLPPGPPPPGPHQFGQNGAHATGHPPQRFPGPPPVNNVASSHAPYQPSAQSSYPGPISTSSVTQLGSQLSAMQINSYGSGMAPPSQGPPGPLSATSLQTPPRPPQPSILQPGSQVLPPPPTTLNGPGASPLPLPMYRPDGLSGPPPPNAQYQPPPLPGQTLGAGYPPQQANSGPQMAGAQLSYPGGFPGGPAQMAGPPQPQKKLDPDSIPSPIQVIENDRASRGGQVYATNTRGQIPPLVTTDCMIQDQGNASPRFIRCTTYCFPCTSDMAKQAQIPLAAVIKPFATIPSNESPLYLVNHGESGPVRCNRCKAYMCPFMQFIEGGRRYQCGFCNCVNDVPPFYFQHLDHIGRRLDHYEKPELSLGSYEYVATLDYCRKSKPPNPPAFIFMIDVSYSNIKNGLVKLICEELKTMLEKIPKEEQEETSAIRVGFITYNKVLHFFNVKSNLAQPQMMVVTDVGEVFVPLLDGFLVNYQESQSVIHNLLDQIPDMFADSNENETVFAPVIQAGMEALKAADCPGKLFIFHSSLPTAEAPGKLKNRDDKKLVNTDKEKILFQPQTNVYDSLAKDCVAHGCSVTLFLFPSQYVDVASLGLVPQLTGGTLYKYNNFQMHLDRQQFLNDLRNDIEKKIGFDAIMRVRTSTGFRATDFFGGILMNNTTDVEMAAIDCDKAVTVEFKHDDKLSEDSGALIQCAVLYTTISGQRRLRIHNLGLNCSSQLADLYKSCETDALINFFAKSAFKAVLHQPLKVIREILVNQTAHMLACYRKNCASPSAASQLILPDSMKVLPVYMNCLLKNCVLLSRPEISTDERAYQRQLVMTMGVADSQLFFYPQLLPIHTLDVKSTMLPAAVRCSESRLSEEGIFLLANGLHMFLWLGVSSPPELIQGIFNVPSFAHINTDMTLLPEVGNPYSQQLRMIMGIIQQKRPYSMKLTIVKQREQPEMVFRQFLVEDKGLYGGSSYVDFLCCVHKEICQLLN
In short: (§1)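 Read-out: spectral counts from LC-MS/MS (Orbitrap Fusion) after MaxQuant identification. Variable modifications were Met oxidation, protein N-terminal acetylation and N/Q deamidation.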

HTT = HTT (human, UniProt P42858 1-3142)
In short: as §1

AMBRA1 = target: T2, AMBRA1 (human, UniProt Q9C0C7 1-1298, limits assumed)
T2 sequence (looked up): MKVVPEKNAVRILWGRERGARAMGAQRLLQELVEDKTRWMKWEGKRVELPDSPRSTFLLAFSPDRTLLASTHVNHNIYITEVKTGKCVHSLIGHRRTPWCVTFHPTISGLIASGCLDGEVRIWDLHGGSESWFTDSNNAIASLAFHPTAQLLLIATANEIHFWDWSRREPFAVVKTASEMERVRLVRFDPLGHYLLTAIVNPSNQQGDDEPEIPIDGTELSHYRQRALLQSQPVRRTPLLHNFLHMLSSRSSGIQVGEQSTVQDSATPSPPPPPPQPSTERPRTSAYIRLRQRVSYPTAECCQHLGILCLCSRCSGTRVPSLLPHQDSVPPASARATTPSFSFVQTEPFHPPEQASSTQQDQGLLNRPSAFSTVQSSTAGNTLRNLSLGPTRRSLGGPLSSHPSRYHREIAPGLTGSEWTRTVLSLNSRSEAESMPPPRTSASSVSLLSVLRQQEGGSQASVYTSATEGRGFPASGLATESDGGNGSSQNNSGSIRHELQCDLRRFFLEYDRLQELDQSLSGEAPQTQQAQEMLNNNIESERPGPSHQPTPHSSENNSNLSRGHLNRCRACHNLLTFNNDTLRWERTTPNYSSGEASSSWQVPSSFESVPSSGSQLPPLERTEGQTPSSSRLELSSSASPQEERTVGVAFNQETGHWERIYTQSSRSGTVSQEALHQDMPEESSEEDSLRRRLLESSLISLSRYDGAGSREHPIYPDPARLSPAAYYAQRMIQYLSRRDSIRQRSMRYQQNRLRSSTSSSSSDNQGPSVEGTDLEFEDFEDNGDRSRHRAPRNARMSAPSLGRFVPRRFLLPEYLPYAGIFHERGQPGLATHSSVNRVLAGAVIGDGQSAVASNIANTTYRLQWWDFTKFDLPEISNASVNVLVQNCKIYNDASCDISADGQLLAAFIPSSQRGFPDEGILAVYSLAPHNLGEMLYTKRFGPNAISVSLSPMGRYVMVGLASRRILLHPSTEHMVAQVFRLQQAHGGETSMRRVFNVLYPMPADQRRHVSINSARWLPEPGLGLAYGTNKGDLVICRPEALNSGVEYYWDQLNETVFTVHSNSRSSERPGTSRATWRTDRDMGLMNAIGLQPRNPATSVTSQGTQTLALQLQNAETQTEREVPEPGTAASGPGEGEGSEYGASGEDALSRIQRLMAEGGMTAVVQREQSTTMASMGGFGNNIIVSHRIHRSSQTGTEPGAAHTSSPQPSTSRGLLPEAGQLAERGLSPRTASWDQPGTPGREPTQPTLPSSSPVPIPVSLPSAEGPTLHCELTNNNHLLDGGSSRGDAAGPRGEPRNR
In short: as §1

Chain of HTT (P42858 whole entry): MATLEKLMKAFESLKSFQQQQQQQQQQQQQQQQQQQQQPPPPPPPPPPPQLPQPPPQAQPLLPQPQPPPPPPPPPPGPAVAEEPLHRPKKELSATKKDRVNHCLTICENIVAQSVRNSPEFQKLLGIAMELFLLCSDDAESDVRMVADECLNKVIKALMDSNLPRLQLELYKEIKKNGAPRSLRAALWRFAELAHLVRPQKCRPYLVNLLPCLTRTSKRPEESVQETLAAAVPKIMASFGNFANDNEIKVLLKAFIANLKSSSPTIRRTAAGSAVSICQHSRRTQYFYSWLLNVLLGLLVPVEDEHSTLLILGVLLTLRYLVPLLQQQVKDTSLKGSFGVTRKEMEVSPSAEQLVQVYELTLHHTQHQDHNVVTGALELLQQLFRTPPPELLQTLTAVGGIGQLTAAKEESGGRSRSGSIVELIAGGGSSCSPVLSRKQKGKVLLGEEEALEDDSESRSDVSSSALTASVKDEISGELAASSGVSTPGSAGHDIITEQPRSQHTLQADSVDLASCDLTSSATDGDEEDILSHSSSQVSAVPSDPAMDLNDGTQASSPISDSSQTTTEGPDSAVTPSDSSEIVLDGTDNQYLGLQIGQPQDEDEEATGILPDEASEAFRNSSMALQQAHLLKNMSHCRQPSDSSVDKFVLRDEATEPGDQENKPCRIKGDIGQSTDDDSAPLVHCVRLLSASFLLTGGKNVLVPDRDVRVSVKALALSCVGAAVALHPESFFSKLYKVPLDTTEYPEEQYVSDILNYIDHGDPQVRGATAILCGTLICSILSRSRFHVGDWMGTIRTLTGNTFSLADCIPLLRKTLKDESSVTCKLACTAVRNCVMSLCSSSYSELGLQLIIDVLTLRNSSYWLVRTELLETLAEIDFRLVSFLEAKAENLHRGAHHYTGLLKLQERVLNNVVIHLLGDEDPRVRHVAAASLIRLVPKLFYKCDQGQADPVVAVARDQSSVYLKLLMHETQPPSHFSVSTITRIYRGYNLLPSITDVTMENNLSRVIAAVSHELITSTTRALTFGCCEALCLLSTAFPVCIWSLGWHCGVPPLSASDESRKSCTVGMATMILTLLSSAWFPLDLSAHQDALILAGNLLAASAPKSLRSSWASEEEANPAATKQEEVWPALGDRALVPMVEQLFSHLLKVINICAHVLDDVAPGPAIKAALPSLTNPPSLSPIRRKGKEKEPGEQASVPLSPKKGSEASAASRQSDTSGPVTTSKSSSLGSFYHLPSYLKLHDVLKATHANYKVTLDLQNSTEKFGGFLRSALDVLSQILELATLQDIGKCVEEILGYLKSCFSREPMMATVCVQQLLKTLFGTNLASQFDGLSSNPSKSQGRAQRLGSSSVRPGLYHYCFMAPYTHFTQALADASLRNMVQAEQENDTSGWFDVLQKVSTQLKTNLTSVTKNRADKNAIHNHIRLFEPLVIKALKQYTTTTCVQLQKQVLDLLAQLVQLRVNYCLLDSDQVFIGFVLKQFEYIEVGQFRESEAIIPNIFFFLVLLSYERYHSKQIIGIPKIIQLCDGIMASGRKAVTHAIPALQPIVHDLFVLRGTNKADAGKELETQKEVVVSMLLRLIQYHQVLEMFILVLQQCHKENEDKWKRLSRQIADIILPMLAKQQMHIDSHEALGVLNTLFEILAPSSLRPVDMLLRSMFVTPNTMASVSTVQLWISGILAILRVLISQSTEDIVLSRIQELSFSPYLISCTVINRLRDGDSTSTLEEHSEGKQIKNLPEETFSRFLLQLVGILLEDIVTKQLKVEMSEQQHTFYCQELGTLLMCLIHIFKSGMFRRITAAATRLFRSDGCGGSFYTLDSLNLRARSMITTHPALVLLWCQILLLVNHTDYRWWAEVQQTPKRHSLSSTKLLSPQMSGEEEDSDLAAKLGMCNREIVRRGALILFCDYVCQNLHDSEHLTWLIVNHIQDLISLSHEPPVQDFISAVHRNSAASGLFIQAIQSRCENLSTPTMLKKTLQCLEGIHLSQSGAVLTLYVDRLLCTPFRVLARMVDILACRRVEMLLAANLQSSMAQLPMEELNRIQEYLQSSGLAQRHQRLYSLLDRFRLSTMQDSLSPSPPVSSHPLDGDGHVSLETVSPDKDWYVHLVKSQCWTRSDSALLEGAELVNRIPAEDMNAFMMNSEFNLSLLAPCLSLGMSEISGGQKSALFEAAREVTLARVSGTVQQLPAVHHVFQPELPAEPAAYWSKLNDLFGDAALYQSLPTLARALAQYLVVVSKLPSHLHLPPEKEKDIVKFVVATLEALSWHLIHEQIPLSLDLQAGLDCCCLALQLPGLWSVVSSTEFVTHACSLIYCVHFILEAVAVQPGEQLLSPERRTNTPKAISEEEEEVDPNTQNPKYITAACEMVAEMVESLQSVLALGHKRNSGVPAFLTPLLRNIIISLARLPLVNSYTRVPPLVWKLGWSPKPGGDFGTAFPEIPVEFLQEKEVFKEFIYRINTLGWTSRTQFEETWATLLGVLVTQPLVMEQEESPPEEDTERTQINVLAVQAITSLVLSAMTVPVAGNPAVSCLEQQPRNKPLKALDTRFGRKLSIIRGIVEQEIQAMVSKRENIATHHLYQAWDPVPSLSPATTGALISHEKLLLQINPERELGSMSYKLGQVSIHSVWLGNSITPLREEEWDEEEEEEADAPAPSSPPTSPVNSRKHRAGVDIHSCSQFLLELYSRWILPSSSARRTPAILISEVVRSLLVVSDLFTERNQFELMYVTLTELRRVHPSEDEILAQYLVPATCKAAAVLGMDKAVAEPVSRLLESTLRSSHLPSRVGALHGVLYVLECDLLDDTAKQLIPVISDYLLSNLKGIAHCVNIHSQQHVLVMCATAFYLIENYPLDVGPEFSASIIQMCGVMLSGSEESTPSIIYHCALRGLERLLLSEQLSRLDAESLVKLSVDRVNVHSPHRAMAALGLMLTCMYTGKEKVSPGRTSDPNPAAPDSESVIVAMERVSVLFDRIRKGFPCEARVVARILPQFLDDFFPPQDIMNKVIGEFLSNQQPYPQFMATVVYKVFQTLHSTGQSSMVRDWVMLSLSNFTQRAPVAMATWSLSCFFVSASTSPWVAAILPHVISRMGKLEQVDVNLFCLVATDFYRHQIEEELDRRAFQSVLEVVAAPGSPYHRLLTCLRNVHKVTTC

binding result (SEC24D): binds
binding result (HTT): binds
binding result (AMBRA1): binds
B1: LZTR1-FLAG (other, human, UniProt Q8N653 1-840, looked up)
chain: MAGPGSTGGQIGAAALAGGARSKVAPSVDFDHSCSDSVEYLTLNFGPFETVHRWRRLPPCDEFVGARRSKHTVVAYKDAIYVFGGDNGKTMLNDLLRFDVKDCSWCRAFTTGTPPAPRYHHSAVVYGSSMFVFGGYTGDIYSNSNLKNKNDLFEYKFATGQWTEWKIEGRLPVARSAHGATVYSDKLWIFAGYDGNARLNDMWTIGLQDRELTCWEEVAQSGEIPPSCCNFPVAVCRDKMFVFSGQSGAKITNNLFQFEFKDKTWTRIPTEHLLRGSPPPPQRRYGHTMVAFDRHLYVFGGAADNTLPNELHCYDVDFQTWEVVQPSSDSEVGGAEVPERACASEEVPTLTYEERVGFKKSRDVFGLDFGTTSAKQPTQPASELPSGRLFHAAAVISDAMYIFGGTVDNNIRSGEMYRFQFSCYPKCTLHEDYGRLWESRQFCDVEFVLGEKEECVQGHVAIVTARSRWLRRKITQARERLAQKLEQEAAPVPREAPGVAAGGARPPLLHVAIREAEARPFEVLMQFLYTDKIKYPRKGHVEDVLLIMDVYKLALSFQLCRLEQLCRQYIEASVDLQNVLVVCESAARLQLSQLKEHCLNFVVKESHFNQVIMMKEFERLSSPLIVEIVRRKQQPPPRTPLDQPVDIGTSLIQDMKAYLEGAGAEFCDITLLLDGHPRPAHKAILAARSSYFEAMFRSFMPEDGQVNISIGEMVPSRQAFESMLRYIYYGEVNMPPEDSLYLFAAPYYYGFYNNRLQAYCKQNLEMNVTVQNVLQILEAADKTQALDMKRHCLHIIVHQFTKVSKLPTLRSLSQQLLLDIIDSLASHISDKQCAELGADI
notes: Expressed in HEK 293T, HeLa or U87 cells; used as cell lysate; also called LZTR1 wild type-FLAG; LZTR1 WT; not shown: FLAG tag at the C-terminus
